What was measured:
Conditions in all cases: both partners purified
[1] = molecular target: T1, recombinant human IL-22R1 (rhIL-22 Rα1) (human, UniProt Q8N6P7 16-228); assay: ELISA; receptor (IL-22R1 or IL-22R1-IgG Fc) coated on MaxiSorp plate; serially diluted IL-22 (Fc chimera or His tag); detection by mouse anti-human IgG (Fc)-HRP or anti-His monoclonal antibody-HRP; BSA wells as control
T1 construct: recombinant human IL-22 receptor alpha (rhIL-22 Rα1); also called commercial IL-22R1; source: bought: R&D Systems
T1 sequence (looked up): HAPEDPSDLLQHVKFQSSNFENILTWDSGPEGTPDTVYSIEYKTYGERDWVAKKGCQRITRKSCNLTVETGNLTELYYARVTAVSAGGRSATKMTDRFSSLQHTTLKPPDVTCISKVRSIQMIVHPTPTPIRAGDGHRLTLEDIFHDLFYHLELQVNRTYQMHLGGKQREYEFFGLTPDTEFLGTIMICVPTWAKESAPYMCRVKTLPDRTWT

[2] = molecular target: T2, recombinant human IL-22R1 (rhIL-22 Rα1) (human, UniProt Q8N6P7 16-228); assay: ELISA; IL-22 on IL-22R1 coated on a MaxiSorp 96-well plate (Fig. S1)
T2 construct: human interleukin-22 receptor alpha (IL-22R1), recombinant soluble protein; Probably the extracellular part; also called IL-22 receptor alpha; commercial IL-22R1; source: bought: R&D Systems
T2 sequence (looked up): T1 sequence (looked up)

[3] = molecular target: T2, recombinant human IL-22R1 (rhIL-22 Rα1); assay: ELISA; competition: human IL-22R1 coated (1 µg/ml) on MaxiSorp; purified ABD-derived variants serially diluted in PBS-T with 1% BSA with 1 nM IL-22 Fc chimera; IL-22-Fc detected by anti-human IgG (Fc) HRP

B1: recombinant human IL-22 protein, Fc Chimera (Fc fusion, UniProt Q9GZX6 34-179, looked up)
chain: APISSHCRLDKSNFQQPYITNRTFMLAKEASLADNNTDVRLIGEKLFHGVSMSERCYLMKQVLNFTLEEVLFPQSDRFQPYMQEVVPFLARLSNRLSTCHIEGDDLHIQRNVQKLKDTVKKLGESGEIKAIGELDLLFMSLRNACI
notes: human interleukin-22 fused to human IgG Fc; also called IL-22-IgG Fc cytokine; IL-22 (Fc chimera); source: bought: Abcam
[1]
  binding result: binds

B2: human IL-22 (ligand, UniProt Q9GZX6 34-179, looked up)
chain: B1 chain
notes: human interleukin-22; it may be m16 or m17; also called hIL-22; IL-22 cytokine; source: bought: Abcam (cell assays)
[2]
  binding result: binds

B3: recombinant human IL-22 protein, Fc Chimera (Fc fusion, UniProt Q9GZX6 34-179, looked up)
chain: B1 chain
notes: human interleukin-22; also called IL-22-Fc; IL-22 cytokine; source: bought: Abcam
[3]
  binding result: binds

— paper PMC11446014, “Human IL-22 receptor-targeted small protein antagonist suppress murine DSS-induced colitis” (Cell Communication and Signaling : CCS, 2024)
